Assay results as given in US20050175986A1 (SMIT KLINE BEECHAM, published 2005).

Target: T1, recombinant F protein of Respiratory Syncytial Virus (Respiratory Syncytial Virus, UniProt P03420 26-524)
T1 construct: Recombinant F-protein as described in P. Tsui et al, J. Immunol; 157:772-780 (1996); Coated on plastic in the ELISAs; also called recombinant RSV F-protein; rF protein
Assay: solid phase ELISA on coated recombinant F protein
Experimental: Binding of the Gλ-1 mABs to recombinant F protein was measured in a standard solid phase ELISA. Antigen diluted in PBS pH 7.0 was adsorbed onto polystyrene round-bottom microplates (Dynatech, Immunolon II) for 18 hours. Wells were then aspirated and blocked with 0.5% boiled casein (BC) in PBS containing 1% Tween 20 […] for two hours. Antibodies (50 μl/well) were diluted to varying concentrations in PBS/0.5% BC containing 0.025% Tween 20 and incubated in antigen coated wells for one hour. Plates were washed three times with PBS containing 0.05% Tween 20, using a Titertek 320 microplate washer, followed by addition of HRP-labelled protein A/G (50 μl) diluted 1:5000. After washing three times, TMBlue substrate (TSI, #TM102) was added and plates were incubated an additional 15 minutes. The reaction was stopped by addition of 1 N H₂SO₄ and absorbance read at 450 nm using a Biotek ELISA reader.
Binding of the Gλ-1 mABs to rF protein was inhibited by mAb B4, for which the F protein amino acids critical for antigen recognition are amino acids 268, 272 and 275 of SEQ ID NO: 20). Binding of the Gλ-1 mABs to rF protein was not inhibited by mAb RSMU19, for which F protein amino acid 429 of SEQ ID NO: 20 is critical for antigen recognition.

T1 sequence (P03420 26-524 limits assumed): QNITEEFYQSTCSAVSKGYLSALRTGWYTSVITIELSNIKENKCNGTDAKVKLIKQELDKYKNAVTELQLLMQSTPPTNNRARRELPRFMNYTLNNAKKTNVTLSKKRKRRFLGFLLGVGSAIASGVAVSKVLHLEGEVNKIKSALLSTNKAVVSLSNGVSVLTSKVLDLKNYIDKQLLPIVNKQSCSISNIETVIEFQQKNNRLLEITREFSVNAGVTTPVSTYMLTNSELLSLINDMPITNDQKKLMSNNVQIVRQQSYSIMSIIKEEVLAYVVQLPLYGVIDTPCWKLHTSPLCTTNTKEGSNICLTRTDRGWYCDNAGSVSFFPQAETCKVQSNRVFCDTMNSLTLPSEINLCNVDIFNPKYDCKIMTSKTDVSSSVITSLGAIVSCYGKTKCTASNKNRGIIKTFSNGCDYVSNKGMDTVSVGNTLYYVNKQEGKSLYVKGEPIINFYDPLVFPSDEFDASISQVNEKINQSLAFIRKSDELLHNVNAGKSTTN

B1: Gλ-1B monoclonal antibody (antibody, human IgG1, V domains shown)
VH: EVQLVESGGGLVQPGGSLRLSCAASGVSLSGYKMNWVRQAPGKGLEWVSSITGMSNYIHYSDSVKGRFTISRDNAMNSLYLQMNSLTAEDTGVYYCATQPGELAPFDHWGQGTLVTVSS
VL: QSVLTQPPSVSAAPGQKVTISCTGSSSNLGAGYDVHWYRQLPGTAPKLLIYDNNNRPSGVPDRFSGSKSGPSASLAISGLQAEDEADYYCQSYDSSLNGYVFGTGTQLTVLG
notes: Full length human IgG1, lambda light chain; made in COS and CHO cells; also called Gλ-1 mAB B; mAB B
With B1 as the binder, how does the EC50 read?
Its EC50 is 2.6 ng/mL.
